# Patent publication US10941182 (Amgen, dated 2021)
# Starred links: 1 amine or outer side, 2 acyl side, 3 side chain; linkers in the order of their positions; H or OH if unused. Non-standard residues stand in square brackets, D forms with d. *: point of attachment. dBip = N[C@H](Cc1ccc(-c2ccccc2)cc1)C(=O)O; Oic = O=C(O)[C@@H]1C[C@@H]2CCCC[C@@H]2N1; Phe(4-Cl) = N[C@@H](Cc1ccc(Cl)cc1)C(=O)O; Phe(4-I) = N[C@@H](Cc1ccc(I)cc1)C(=O)O; γGlu = O=C(O)[C@H](CCC(=O)[*:2])N[*:1]; Tridecanoyl = CCCCCCCCCCCCC(=O)*; hArg = N=C(N)NCCCC[C@H](N)C(=O)O; Cha = N[C@@H](CC1CCCCC1)C(=O)O; NMeL = CN[C@@H](CC(C)C)C(=O)O; Nle = CCCC[C@H](N)C(=O)O; AEEA = NCCOCCOCC(=O)O
# Key:
# human APJ receptor = molecular target: T1, human APJ receptor (human, UniProt P35414 1-380); test: cell-based or functional assay
# T1 sequence (looked up): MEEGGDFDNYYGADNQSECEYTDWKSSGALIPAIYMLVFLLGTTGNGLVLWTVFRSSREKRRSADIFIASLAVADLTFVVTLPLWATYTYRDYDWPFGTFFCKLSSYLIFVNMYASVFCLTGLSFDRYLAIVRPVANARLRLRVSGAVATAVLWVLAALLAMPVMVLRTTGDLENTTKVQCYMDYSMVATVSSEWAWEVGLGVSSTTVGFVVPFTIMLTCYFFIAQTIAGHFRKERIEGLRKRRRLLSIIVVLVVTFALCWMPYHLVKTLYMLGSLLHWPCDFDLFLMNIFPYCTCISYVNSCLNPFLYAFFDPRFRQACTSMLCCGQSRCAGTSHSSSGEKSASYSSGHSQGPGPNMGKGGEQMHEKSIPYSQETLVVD
# rat APJ receptor = molecular target: T2, rat APJ receptor (rat, UniProt Q9JHG3 1-377); test: cell-based or functional assay
# T2 sequence (looked up): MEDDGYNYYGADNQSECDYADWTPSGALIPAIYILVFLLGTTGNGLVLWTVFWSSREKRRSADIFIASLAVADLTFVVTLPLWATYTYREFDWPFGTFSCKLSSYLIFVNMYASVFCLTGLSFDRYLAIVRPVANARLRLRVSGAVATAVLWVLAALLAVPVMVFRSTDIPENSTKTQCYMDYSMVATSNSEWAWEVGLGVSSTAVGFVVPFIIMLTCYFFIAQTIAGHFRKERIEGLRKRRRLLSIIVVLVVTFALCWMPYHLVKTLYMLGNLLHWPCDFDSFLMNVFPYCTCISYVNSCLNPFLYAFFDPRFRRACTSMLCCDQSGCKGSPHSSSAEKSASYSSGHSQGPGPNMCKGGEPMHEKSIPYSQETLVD
binder,measurement,setting,value
Tridecanoyl-[γGlu][AEEA][AEEA][dR]Q[hArg]P[dR][Cha]SHKG[Oic][Nle]P[Phe(4-Cl)]-OH (SMILES CCCCCCCCCCCCC(=O)N[C@@H](CCC(=O)NCCOCCOCC(=O)NCCOCCOCC(=O)N[C@H](CCCNC(=N)N)C(=O)N[C@@H](CCC(N)=O)C(=O)N[C@@H](CCCCNC(=N)N)C(=O)N1CCC[C@H]1C(=O)N[C@H](CCCNC(=N)N)C(=O)N[C@@H](CC1CCCCC1)C(=O)N[C@@H](CO)C(=O)N[C@@H](Cc1c[nH]cn1)C(=O)N[C@@H](CCCCN)C(=O)NCC(=O)N1[C@H](C(=O)N[C@@H](CCCC)C(=O)N2CCC[C@H]2C(=O)N[C@@H](Cc2ccc(Cl)cc2)C(=O)O)C[C@@H]2CCCC[C@@H]21)C(=O)O) [apelin polypeptide SEQ ID NO: 221],EC50 Human APJ Receptor,human APJ receptor,0.196 nM
same,EC50 Rat APJ Receptor,rat APJ receptor,1.93 nM
Tridecanoyl-[γGlu][AEEA][AEEA]RQRP[hArg][Cha]SHKG[Oic][Phe(4-I)]P[dBip]-OH (SMILES CCCCCCCCCCCCC(=O)N[C@@H](CCC(=O)NCCOCCOCC(=O)NCCOCCOCC(=O)N[C@@H](CCCNC(=N)N)C(=O)N[C@@H](CCC(N)=O)C(=O)N[C@@H](CCCNC(=N)N)C(=O)N1CCC[C@H]1C(=O)N[C@@H](CCCCNC(=N)N)C(=O)N[C@@H](CC1CCCCC1)C(=O)N[C@@H](CO)C(=O)N[C@@H](Cc1c[nH]cn1)C(=O)N[C@@H](CCCCN)C(=O)NCC(=O)N1[C@H](C(=O)N[C@@H](Cc2ccc(I)cc2)C(=O)N2CCC[C@H]2C(=O)N[C@H](Cc2ccc(-c3ccccc3)cc2)C(=O)O)C[C@@H]2CCCC[C@@H]21)C(=O)O) [apelin polypeptide SEQ ID NO: 214],EC50 Human APJ Receptor,human APJ receptor,2.92 nM
same,EC50 Rat APJ Receptor,rat APJ receptor,5.81 nM
Tridecanoyl-[γGlu][AEEA][AEEA][dR]Q[hArg]P[dR][NMeL]SHKG[Oic][Nle]P[Phe(4-Cl)]-OH (SMILES CCCCCCCCCCCCC(=O)N[C@@H](CCC(=O)NCCOCCOCC(=O)NCCOCCOCC(=O)N[C@H](CCCNC(=N)N)C(=O)N[C@@H](CCC(N)=O)C(=O)N[C@@H](CCCCNC(=N)N)C(=O)N1CCC[C@H]1C(=O)N[C@H](CCCNC(=N)N)C(=O)N(C)[C@@H](CC(C)C)C(=O)N[C@@H](CO)C(=O)N[C@@H](Cc1c[nH]cn1)C(=O)N[C@@H](CCCCN)C(=O)NCC(=O)N1[C@H](C(=O)N[C@@H](CCCC)C(=O)N2CCC[C@H]2C(=O)N[C@@H](Cc2ccc(Cl)cc2)C(=O)O)C[C@@H]2CCCC[C@@H]21)C(=O)O) [apelin polypeptide SEQ ID NO: 218],EC50 Human APJ Receptor,human APJ receptor,0.841 nM
same,EC50 Rat APJ Receptor,rat APJ receptor,14.9 nM
Ac-RQRP[hArg][Cha]SHKG[Oic][Nle]P[Phe(4-Cl)]-OH (SMILES CCCC[C@H](NC(=O)[C@@H]1C[C@@H]2CCCC[C@@H]2N1C(=O)CNC(=O)[C@H](CCCCN)NC(=O)[C@H](Cc1c[nH]cn1)NC(=O)[C@H](CO)NC(=O)[C@H](CC1CCCCC1)NC(=O)[C@H](CCCCNC(=N)N)NC(=O)[C@@H]1CCCN1C(=O)[C@H](CCCNC(=N)N)NC(=O)[C@H](CCC(N)=O)NC(=O)[C@H](CCCNC(=N)N)NC(C)=O)C(=O)N1CCC[C@H]1C(=O)N[C@@H](Cc1ccc(Cl)cc1)C(=O)O) [apelin polypeptide SEQ ID NO: 17],EC50 Human APJ Receptor,human APJ receptor,0.171 nM
same,EC50 Rat APJ Receptor,rat APJ receptor,1.59 nM
Tridecanoyl-[γGlu][AEEA][AEEA]RQRP[dR][Cha]SHKG[Oic][Phe(4-I)]P[dBip]-OH (SMILES CCCCCCCCCCCCC(=O)N[C@@H](CCC(=O)NCCOCCOCC(=O)NCCOCCOCC(=O)N[C@@H](CCCNC(=N)N)C(=O)N[C@@H](CCC(N)=O)C(=O)N[C@@H](CCCNC(=N)N)C(=O)N1CCC[C@H]1C(=O)N[C@H](CCCNC(=N)N)C(=O)N[C@@H](CC1CCCCC1)C(=O)N[C@@H](CO)C(=O)N[C@@H](Cc1c[nH]cn1)C(=O)N[C@@H](CCCCN)C(=O)NCC(=O)N1[C@H](C(=O)N[C@@H](Cc2ccc(I)cc2)C(=O)N2CCC[C@H]2C(=O)N[C@H](Cc2ccc(-c3ccccc3)cc2)C(=O)O)C[C@@H]2CCCC[C@@H]21)C(=O)O) [apelin polypeptide SEQ ID NO: 216],EC50 Human APJ Receptor,human APJ receptor,10.8 nM
same,EC50 Rat APJ Receptor,rat APJ receptor,22.5 nM
Tridecanoyl-[γGlu][AEEA][AEEA][dR]QRP[dR][Cha]SHKG[Oic][Phe(4-I)]P[dBip]-OH (SMILES CCCCCCCCCCCCC(=O)N[C@@H](CCC(=O)NCCOCCOCC(=O)NCCOCCOCC(=O)N[C@H](CCCNC(=N)N)C(=O)N[C@@H](CCC(N)=O)C(=O)N[C@@H](CCCNC(=N)N)C(=O)N1CCC[C@H]1C(=O)N[C@H](CCCNC(=N)N)C(=O)N[C@@H](CC1CCCCC1)C(=O)N[C@@H](CO)C(=O)N[C@@H](Cc1c[nH]cn1)C(=O)N[C@@H](CCCCN)C(=O)NCC(=O)N1[C@H](C(=O)N[C@@H](Cc2ccc(I)cc2)C(=O)N2CCC[C@H]2C(=O)N[C@H](Cc2ccc(-c3ccccc3)cc2)C(=O)O)C[C@@H]2CCCC[C@@H]21)C(=O)O) [apelin polypeptide SEQ ID NO: 215],EC50 Human APJ Receptor,human APJ receptor,8.42 nM
same,EC50 Rat APJ Receptor,rat APJ receptor,21.4 nM
Tridecanoyl-[γGlu][AEEA][AEEA][dR]Q[hArg]P[dR][NMeL]SHKG[Oic][Phe(4-I)]P[Phe(4-Cl)]-OH (SMILES CCCCCCCCCCCCC(=O)N[C@@H](CCC(=O)NCCOCCOCC(=O)NCCOCCOCC(=O)N[C@H](CCCNC(=N)N)C(=O)N[C@@H](CCC(N)=O)C(=O)N[C@@H](CCCCNC(=N)N)C(=O)N1CCC[C@H]1C(=O)N[C@H](CCCNC(=N)N)C(=O)N(C)[C@@H](CC(C)C)C(=O)N[C@@H](CO)C(=O)N[C@@H](Cc1c[nH]cn1)C(=O)N[C@@H](CCCCN)C(=O)NCC(=O)N1[C@H](C(=O)N[C@@H](Cc2ccc(I)cc2)C(=O)N2CCC[C@H]2C(=O)N[C@@H](Cc2ccc(Cl)cc2)C(=O)O)C[C@@H]2CCCC[C@@H]21)C(=O)O) [apelin polypeptide SEQ ID NO: 219],EC50 Human APJ Receptor,human APJ receptor,10.1 nM
same,EC50 Rat APJ Receptor,rat APJ receptor,45 nM
Tridecanoyl-[γGlu][AEEA][AEEA][dR]Q[hArg]P[dR][NMeL]SHKG[Oic][Nle]P[dBip]-OH (SMILES CCCCCCCCCCCCC(=O)N[C@@H](CCC(=O)NCCOCCOCC(=O)NCCOCCOCC(=O)N[C@H](CCCNC(=N)N)C(=O)N[C@@H](CCC(N)=O)C(=O)N[C@@H](CCCCNC(=N)N)C(=O)N1CCC[C@H]1C(=O)N[C@H](CCCNC(=N)N)C(=O)N(C)[C@@H](CC(C)C)C(=O)N[C@@H](CO)C(=O)N[C@@H](Cc1c[nH]cn1)C(=O)N[C@@H](CCCCN)C(=O)NCC(=O)N1[C@H](C(=O)N[C@@H](CCCC)C(=O)N2CCC[C@H]2C(=O)N[C@H](Cc2ccc(-c3ccccc3)cc2)C(=O)O)C[C@@H]2CCCC[C@@H]21)C(=O)O) [apelin polypeptide SEQ ID NO: 220],EC50 Human APJ Receptor,human APJ receptor,2.72 nM
same,EC50 Rat APJ Receptor,rat APJ receptor,27.6 nM
Tridecanoyl-[γGlu][AEEA][AEEA]QRP[hArg][NMeL]SHKG[Oic][Phe(4-I)]P[dBip]-OH (SMILES CCCCCCCCCCCCC(=O)N[C@@H](CCC(=O)NCCOCCOCC(=O)NCCOCCOCC(=O)N[C@@H](CCC(N)=O)C(=O)N[C@@H](CCCNC(=N)N)C(=O)N1CCC[C@H]1C(=O)N[C@@H](CCCCNC(=N)N)C(=O)N(C)[C@@H](CC(C)C)C(=O)N[C@@H](CO)C(=O)N[C@@H](Cc1c[nH]cn1)C(=O)N[C@@H](CCCCN)C(=O)NCC(=O)N1[C@H](C(=O)N[C@@H](Cc2ccc(I)cc2)C(=O)N2CCC[C@H]2C(=O)N[C@H](Cc2ccc(-c3ccccc3)cc2)C(=O)O)C[C@@H]2CCCC[C@@H]21)C(=O)O) [apelin polypeptide SEQ ID NO: 222],EC50 Human APJ Receptor,human APJ receptor,1.23 nM
same,EC50 Rat APJ Receptor,rat APJ receptor,6.87 nM
Tridecanoyl-[γGlu][AEEA][AEEA][dR]QRP[hArg][Cha]SHKG[Oic][Phe(4-I)]P[dBip]-OH (SMILES CCCCCCCCCCCCC(=O)N[C@@H](CCC(=O)NCCOCCOCC(=O)NCCOCCOCC(=O)N[C@H](CCCNC(=N)N)C(=O)N[C@@H](CCC(N)=O)C(=O)N[C@@H](CCCNC(=N)N)C(=O)N1CCC[C@H]1C(=O)N[C@@H](CCCCNC(=N)N)C(=O)N[C@@H](CC1CCCCC1)C(=O)N[C@@H](CO)C(=O)N[C@@H](Cc1c[nH]cn1)C(=O)N[C@@H](CCCCN)C(=O)NCC(=O)N1[C@H](C(=O)N[C@@H](Cc2ccc(I)cc2)C(=O)N2CCC[C@H]2C(=O)N[C@H](Cc2ccc(-c3ccccc3)cc2)C(=O)O)C[C@@H]2CCCC[C@@H]21)C(=O)O) [apelin polypeptide SEQ ID NO: 217],EC50 Human APJ Receptor,human APJ receptor,4.67 nM
same,EC50 Rat APJ Receptor,rat APJ receptor,8.83 nM
